In patent publication US20150082475:

Molecular target: light-harvesting complex II (LHCII) in thylakoids of the Arabidopsis thaliana stn7 stn8 double mutant

B1: recombinant OsPSTOL1 (OsPSTOL1rec) (protein)
chain: MLLCQRASKNAPRIESFLQKQETSNPKRYTLSEVKRMTKSFAHKLGRGGFGTVYKGSLPDGREIAVKMLKDTKGDGEEFINEVAGISKTSHINVVNLLGFSLQGSKRALIYEYMPNGSLDRYSFGDSSVQGDNTLSWDRLFNIIVGIARGLEYLHCHCNIRIVHFDIKPQNILLAQDFCPKISDFGLSKLCHLKESRISINGLRGTPGYIAPEVFSRQYGSASSKSDVYSYGMVVLEMAGAKKNINVSTGSSSKYFPQWLYDNLDQFCCPTGEISSQTTDLVRKMVVVGLWCIQLVPTDRPSMREVLEMLESNGRDLPLPPKGLHHHHHH
phosphorylation of LHCII, in vitro phosphorylation assay with phosphothreonine-specific immunoblot: recombinant OsPSTOL1 protein restores phosphorylation of the light-harvesting complex II (LHCII) in the Arabidopsis stn7 stn8 double mutant (lane 4)
